Assays:
Kumin;POL = Kumin;POL (Mycobacterium …, UniProt P9WKD9;P9WNV3 1-259;1-287, |); test: EMSA; supershift; EMSA: 50 mM Tris-HCl pH 8.0, 50 mM NaCl, 1 mM DTT, 5 mM MgCl2, 4% glycerol, 0.025 mg/ml BSA, 10 nM DNA, 30 C 20 min; FP: 10 mM Tris-HCl pH 8, 10 mM NaCl, 10% glycerol, 1 mM TCEP, 50 nM DNA, 30 C; ternary EMSA: 20 mM Tris-HCl pH 8.0, 5 mM MgCl2, 5% glycerol, 37 C; bridging: 20 mM Tris-HCl pH 7.5, 50 mM KCl, 5 mM EDTA, 1 mM DTT, 5% glycerol, 40 ug/ml BSA, room temperature; settings: protein: recombinant;recombinant; tags: His (Ni-NTA purified; pMCSG7);His (Ni-NTA purified); chain copies: 2;1; label: 5' 6-FAM on strand 1; blunt
Sequence of Kumin;POL (P9WNV3 1-287, one chain of several): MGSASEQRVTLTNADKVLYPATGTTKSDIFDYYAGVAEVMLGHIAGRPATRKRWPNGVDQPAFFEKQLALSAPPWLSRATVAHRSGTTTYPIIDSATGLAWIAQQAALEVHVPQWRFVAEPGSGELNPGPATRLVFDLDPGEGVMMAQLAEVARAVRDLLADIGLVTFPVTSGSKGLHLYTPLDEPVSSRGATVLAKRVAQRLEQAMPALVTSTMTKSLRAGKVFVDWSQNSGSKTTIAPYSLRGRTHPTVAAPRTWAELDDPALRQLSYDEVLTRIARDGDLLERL

Kucore;LIG = Kucore;LIG (Mycobacterium …, UniProt P9WKD9;P9WNV3 1-238;454-759, |); test: as above; settings: protein: recombinant;recombinant; tags: His (Ni-NTA purified; pMCSG7);His (Ni-NTA purified); chain copies: 2;1; label: 5' 6-FAM on strand 1; blunt
Sequence of Kucore;LIG (P9WNV3 454-759, one chain of several): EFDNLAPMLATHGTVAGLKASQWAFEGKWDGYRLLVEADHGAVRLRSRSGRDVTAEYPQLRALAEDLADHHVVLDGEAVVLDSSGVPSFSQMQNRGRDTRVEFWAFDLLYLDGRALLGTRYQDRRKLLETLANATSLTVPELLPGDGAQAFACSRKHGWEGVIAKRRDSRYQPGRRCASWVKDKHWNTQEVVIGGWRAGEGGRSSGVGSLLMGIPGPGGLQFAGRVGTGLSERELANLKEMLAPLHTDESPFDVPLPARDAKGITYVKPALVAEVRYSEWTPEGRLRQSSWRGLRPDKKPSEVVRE

KuWT;LIG = KuWT;LIG (Mycobacterium …, UniProt P9WKD9;P9WNV3 1-273;454-759, |); test: as above; settings: protein: recombinant;recombinant; tags: His (Ni-NTA purified; pMCSG7);His (Ni-NTA purified); chain copies: 2;1; label: 5' 6-FAM on strand 1; blunt
Sequence of KuWT;LIG (P9WKD9 whole entry, chain 1 of 2): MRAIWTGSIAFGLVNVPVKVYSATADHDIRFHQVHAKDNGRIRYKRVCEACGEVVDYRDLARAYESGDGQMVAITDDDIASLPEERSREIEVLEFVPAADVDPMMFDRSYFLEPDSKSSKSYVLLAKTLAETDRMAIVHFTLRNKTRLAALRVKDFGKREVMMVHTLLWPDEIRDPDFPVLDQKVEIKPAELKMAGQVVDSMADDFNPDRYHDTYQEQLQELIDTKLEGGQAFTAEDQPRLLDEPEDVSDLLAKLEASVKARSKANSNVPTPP
Sequence of KuWT;LIG (P9WNV3 454-759, chain 2 of 2): as the sequence (P9WNV3 454-759, one chain of several) above

Kucore;POL = Kucore;POL (Mycobacterium …, UniProt P9WKD9;P9WNV3 1-238;1-287, |); test: as above; settings: protein: recombinant;recombinant; tags: His (Ni-NTA purified; pMCSG7);His (Ni-NTA purified); chain copies: 2;1; label: 5' 6-FAM on strand 1; blunt
Sequence of Kucore;POL (P9WKD9 1-238, chain 1 of 2): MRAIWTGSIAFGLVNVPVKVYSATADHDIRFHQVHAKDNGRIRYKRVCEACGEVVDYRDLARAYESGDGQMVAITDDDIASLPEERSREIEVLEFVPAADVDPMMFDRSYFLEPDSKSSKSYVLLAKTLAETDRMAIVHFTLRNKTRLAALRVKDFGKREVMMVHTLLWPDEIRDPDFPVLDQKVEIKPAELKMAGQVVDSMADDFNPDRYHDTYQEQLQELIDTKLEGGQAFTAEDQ
Sequence of Kucore;POL (P9WNV3 1-287, chain 2 of 2): as the sequence (P9WNV3 1-287, one chain of several) above

Kumin;LigD = Kumin;LigD (Mycobacterium …, UniProt P9WKD9;P9WNV3 1-259;1-759, |); test: EMSA; 10 uM Ku, 1 uM LigD; supershift; EMSA: 50 mM Tris-HCl pH 8.0, 50 mM NaCl, 1 mM DTT, 5 mM MgCl2, 4% glycerol, 0.025 mg/ml BSA, 10 nM DNA, 30 C 20 min; FP: 10 mM Tris-HCl pH 8, 10 mM NaCl, 10% glycerol, 1 mM TCEP, 50 nM DNA, 30 C; ternary EMSA: 20 mM Tris-HCl pH 8.0, 5 mM MgCl2, 5% glycerol, 37 C; bridging: 20 mM Tris-HCl pH 7.5, 50 mM KCl, 5 mM EDTA, 1 mM DTT, 5% glycerol, 40 ug/ml BSA, room temperature; settings: protein: recombinant;recombinant; tags: His (Ni-NTA purified; pMCSG7);His (Ni-NTA purified; pMCSG7); chain copies: 2;1; label: 5' 6-FAM on strand 1; blunt
Sequence of Kumin;LigD (P9WKD9 1-259, chain 1 of 2): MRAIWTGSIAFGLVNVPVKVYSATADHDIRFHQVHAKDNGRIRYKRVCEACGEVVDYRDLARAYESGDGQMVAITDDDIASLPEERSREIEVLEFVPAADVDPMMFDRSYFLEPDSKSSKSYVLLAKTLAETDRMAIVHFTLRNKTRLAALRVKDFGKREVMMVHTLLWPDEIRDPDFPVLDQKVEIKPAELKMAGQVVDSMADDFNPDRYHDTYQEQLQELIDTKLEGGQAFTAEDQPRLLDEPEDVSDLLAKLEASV
Sequence of Kumin;LigD (P9WNV3 whole entry, chain 2 of 2): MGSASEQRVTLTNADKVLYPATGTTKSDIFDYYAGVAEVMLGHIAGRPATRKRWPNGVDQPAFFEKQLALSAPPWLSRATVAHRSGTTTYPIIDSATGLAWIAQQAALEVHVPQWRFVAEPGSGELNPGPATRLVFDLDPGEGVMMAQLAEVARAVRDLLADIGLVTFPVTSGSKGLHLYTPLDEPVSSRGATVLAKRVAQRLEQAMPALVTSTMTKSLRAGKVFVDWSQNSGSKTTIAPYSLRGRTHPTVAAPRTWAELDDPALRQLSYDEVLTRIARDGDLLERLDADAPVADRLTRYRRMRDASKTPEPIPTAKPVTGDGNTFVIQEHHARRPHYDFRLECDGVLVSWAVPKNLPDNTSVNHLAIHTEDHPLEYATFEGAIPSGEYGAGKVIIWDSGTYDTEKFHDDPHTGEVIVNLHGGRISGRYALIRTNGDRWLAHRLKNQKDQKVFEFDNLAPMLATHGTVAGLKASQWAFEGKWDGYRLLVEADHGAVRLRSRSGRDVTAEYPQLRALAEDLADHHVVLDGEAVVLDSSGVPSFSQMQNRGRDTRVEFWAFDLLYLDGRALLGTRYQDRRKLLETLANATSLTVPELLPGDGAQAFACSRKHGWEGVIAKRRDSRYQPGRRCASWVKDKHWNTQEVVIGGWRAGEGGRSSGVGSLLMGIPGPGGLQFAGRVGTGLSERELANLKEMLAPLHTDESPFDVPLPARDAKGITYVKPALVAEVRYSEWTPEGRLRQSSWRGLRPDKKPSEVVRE

Kucore;LigD = Kucore;LigD (Mycobacterium …, UniProt P9WKD9;P9WNV3 1-238;1-759, |); test: as above; settings: protein: recombinant;recombinant; tags: His (Ni-NTA purified; pMCSG7);His (Ni-NTA purified; pMCSG7); chain copies: 2;1; label: 5' 6-FAM on strand 1; blunt
Sequence of Kucore;LigD (P9WKD9 1-238, chain 1 of 2): as the sequence (P9WKD9 1-238, chain 1 of 2) above
Sequence of Kucore;LigD (P9WNV3 whole entry, chain 2 of 2): as the sequence (P9WNV3 whole entry, chain 2 of 2) above

KuWT;LigD = KuWT;LigD (Mycobacterium …, UniProt P9WKD9;P9WNV3 1-273;1-759, |); test: as above; settings: protein: recombinant;recombinant; tags: His (Ni-NTA purified; pMCSG7);His (Ni-NTA purified; pMCSG7); chain copies: 2;1; label: 5' 6-FAM on strand 1; blunt
Sequence of KuWT;LigD (P9WKD9 whole entry, chain 1 of 2): as the sequence (P9WKD9 whole entry, chain 1 of 2) above
Sequence of KuWT;LigD (P9WNV3 whole entry, chain 2 of 2): as the sequence (P9WNV3 whole entry, chain 2 of 2) above

Measured: binding result

B1: 40 bp dsDNA (dsDNA)
DNA 1: CAGGGTAAGTGTGGAGGTGTAGGGAAGGGAATGTTGTCTG
DNA 2: CAGACAACATTCCCTTCCCTACACCTCCACACTTACCCTG
binds: Kumin;POL | Kucore;LIG | KuWT;LIG | Kucore;POL | Kumin;LigD | Kucore;LigD | KuWT;LigD
